Measured values published in US20260258115A1 (MAPP BIOPHARMACEUTICAL, published 2026).
Residue numbers refer to the chain shown, from its start.

B1: ADI-21063 (antibody, V domains shown)
VH: EVQLVESGGGLVQPGGSLRLSCSASGFTFRTYVMQWVRQAPGKGLEYVSAISSDGGSTDYADSVKGRFTVSRDNSKNTLYLQMSSLRAEDTAVYYCVKRGEGGNDYLYYYMDVWGKGTTVTVSS
VL: DIQVTQSPSSLSASVGDRVTITCRASQSITNYLNWYQQKPGKAPKVLIYAASSLQSGVPSRFSGSGSGTDFTLTISSLQPEDFATYYCQQSYLRPPTFGGGTKVEIK
B2: ADI-41394 (antibody, V domains shown)
VH: QVQLVQSGAEVKKPGSSVKVSCKASGGTFNTYAISWVRQAPGQGLEWMGGIIPILGVSNYAQRFQGRVTFSADELTNTAYMELSSLRSEDTAVYFCARPVGAYTLGDAFEIWGRGTTVTVSS
VL: QPVLTQSSSASASLGSSVKLTCTLSSGHSDFIIAWHQQQPGKAPRYLMKFEGNGRYSKGSGIPDRFSGSSSGADRCLTISNLQSEDEADYYCETWDSNTHVVFGGGTKLTVL
B3: ADI-41358 (antibody, V domains shown)
VH: EVQLVESGGGLVKPGGSLRLSCEASGFTLTSYSMNWVRQAPGKGLEWVSSISSSSTYIHYADSVKGRFTISRDNAKNSLYLQMNSLRAEDTAVYYCARDKVMVTKYNGMDVWGQGTTVTVSS
VL: QSVLTQPPAVSGAPGQRVTISCTGSSSNIGAGHDVHWYQQLPGTAPKLLIYGNSNRPSGVPDRFSGSKSGTSASLAITGLQAGDEADYYCQSYDSSLSGSLFGGGTKLTVL
B4: ADI-41397 (antibody, V domains shown)
VH: EVQLVESGGGLVKPGGSLRLSCAASGFKFSSYYLNWVRQAPGKGLEWVSSISGGSSYINYADSVKGRFTISRDNAKNTLDLQMSNLRAEDTAVYYCARVVGATGPLYFDLWGRGTLVTVSS
VL: B3 VL with A9S, H33Y, L41F, S54N, G83E, S100Y, L101V, G104A, L108V
B5: ADI-41409 (antibody, V domains shown)
VH: QVQLVQSGAEVKKPGASVKVSCKASGYTFTNYGISWVRQAPGQGLEWMGWISAYNGNTNYAQKFQDRVTMTTDTSTSTAYMELRSLRYDDTAVYYCARDTPGEYASAMFDHWGQGTLVTVSS
VL: DIVMTQSPLSLPVTLGQPASISCRSSQSLVYSDGNTYLSWFQQRPGQSPRRLIYKVSNRDSGVPDRFSGSGSGTDFTLKISGVEAEDVGVYYCMQGTHWPPTFGQGTKLEIK
B6: ADI-41362 (antibody, V domains shown)
VH: EVQLVESGGGLVQPGGSLRLSCAASGFTFSDHWMNWVRQTPGKGLEWVANIKPDGRETYYVDSVKGRFTISRDNSKKSVYLQMNSLRAEDTAVYYCVRDGHIVVVTAVPPGFFDLWGRGTLVTVSS
VL: DIQVTQSPSSLSASVGDRVTITCQASQDLTKYLNWYQQKPGKAPKLLIYDISNLETGVPSRFSGSGFGTEFTLTISSLQPEDVATYYCQQYQNLPYTFGQGTKVEIK
B7: ADI-41351 (antibody, V domains shown)
VH: QVQLVQSGGGLVQPGGSLRLSCSASGFTFSSKSMHWVRQAPGKGLEYVSAIRSDGVSTYYGDSVKGRFTVSRDNAKNTVYLRMSSLRREDTAVYYCVKGPYGDFQYNWFDTWGQGTLVTVSS
VL: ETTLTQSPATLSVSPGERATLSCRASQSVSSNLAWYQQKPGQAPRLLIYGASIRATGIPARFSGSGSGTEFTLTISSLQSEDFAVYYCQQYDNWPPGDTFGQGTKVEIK
B8: ADI-41364 (antibody, V domains shown)
VH: EVQLLESGAEVKKPGASVKVSCKASGYTFTDHSIHWVRQAPGRGLEWMGWFNPHTGVTDYAQKFQGWVTMTSDTSISTAYMELSSLKSDDTAIYFCARDQWETDGAYFLDYWGQGTLVTVSS
VL: QSALTQPASVSGSPGQSITISCTGTSSDVGNFKLVSWYQQHPGKAPKLMIYEGNKRPSGVSNRFSGSKSGNTASLTISGLQAEDEADYYCCSSAVSSTFFGTGTKLTVL
B9: ADI-41357 (antibody, V domains shown)
VH: EVQLVESGGGLVQPGGSLRLSCAASGFTFSTYGMNWVRQAPGKGLEWVSYIGGSGRIIYYADSVKGRFTISRDNAKNSLYLQMNSLRAEDTAVYYCARDQHIVLVTGSTPDYWGQGTLVTVSS
VL: EIVLTQSPSSLSASVGDRVTITCRASHAISNYLAWFQQKPGKAPKSLIYAASTLQSGVPSKFSGSGSGTDFTLTISSLQPEDFATYYCQQYSSYPLTFGGGTKVEIK
B10: ADI-41423 (antibody, V domains shown)
VH: QVQLVESGGGLVKPGGSLRLSCAASGFTFSSYSMNWVRQAPGKGLEWVSSISSSSSYIYYADSVKGRFTISRDNAKNSLYLQMNSLRAEDTAVYYCARDPSSSWNRNDYWGQGTLVTVSS
VL: QSVLIQPASVSGSPGQSITISCTGTSSDVGGYNYVSWYQQHPGKAPKLMIYDVSNRPSGVSNRFSGSKSGNTASLTISGLQAEDEADYYCSSYTSSSTLVVFGGGTKVTVL
B11: ADI-41363 (antibody, V domains shown)
VH: QVQLVQSGAEVKKPGSSVKVSCKASGGTFSSYAITWVRQAPGQGLEWMGGIIPLFGTAKYAQQFQGRVTITADESTSTAYMELSSLRSEDTAVYYCARDGEVCTNGFCWFLDWGLGTLVTVSS
VL: DIRVTQSPSSLSASVGDRVTITCQASQDISNYLNWYQQKPGKAPKLLIYDASKLETGVPSRFSGSGSGTDFTFTISSLQPEDIATYYCQNYGNFPHFGGGTKLEIK
B12: ADI-41380 (antibody, V domains shown)
VH: QVQLVQSGAEVKKPGESLKISCKGSGYSFTSYWIGWVRQMPGKGLEWMGIIYPGDSDTRYSPSFQGQVTISADKSISTAYLQWSSLKASDTAMYYCASSRAYYDILTGYYVASAETQTKAAFDIWGQGTTVTVSS
VL: B11 VL with R3Q, K53N, T72S, N90Q, G92D, F94L, P95I, H96T, G99Q, L103V
B13: ADI-41390 (antibody, V domains shown)
VH: EVQLVESGGGLVKPGGSLRLSCAASGFSSSSYFMNWVRQAPGKGPEWVSSISGSSSFINYADSVKGRFTISRDNAKNSLYLQMNSLRAEDTAVYYCARAVLPAGVGGYWFDSWGQGTLVTVSS
VL: QSVVTQPPSVSGAPGQRVTISCTGSSSNIGAGYDVHWYQHLPGRAPKLLIYGNSNRPSGVPDRFSGSKSGTSASLVITGLQAEDEADYCCQSYDSSLSGAVFGGGTQLTVL
B14: ADI-41353 (antibody, V domains shown)
VH: EVQLVESGVEVKKPGESLKISCRGSGYSFHNYWIAWVRQKPGKGLEYMGTIYVDDSDTIYSPSFQGEVTISADKSINTAYLQWNSLKASDTANYYCARQMDFYFDVWGRGTLVTVSS
VL: SYELTQPPSVSVSPGQTARITCSGDPLPRESAYWYQQKPGQAPVVVIFNDIERPLGIPERFSGSRSGTTVTLTISGAQAEDEADYYCQSADSRKTFVFGSGTKLTVL
B15: ADI-41399 (antibody, V domains shown)
VH: QVQLVQSGAEVKKPGASVKVSCKASGYTFTTFAIHWVRQAPGQRLEWMGWINAGNGNTKYSQKFQGRVTITRDTSASTAYMELSSLRSEDTAVYYCARPEISSSSLNEKDDYWGQGTLVTVSS
VL: QPVLTQPASVSGSPGQSITISCTGTSSDVGAYDFVSWYQQHPGKAPKFMIYEVSHRPSGVSNRFSGSKSGNTASLTISGLQAEDEADYYCSSYTTSNTLVFGGGTKLTVL
B16: ADI-41386 (antibody, V domains shown)
VH: QVQLVQSGAEVKKPGASVKVSCKASGYTFTGNYIHWVRQAPGQGLEWMGGINPNSGATNYARKFQGRISMTRDTSINTAYMEVSSLRSDDTATYYCARDAPPVVIPAAIHWFDAWGQGTLVTVSS
VL: SYELTQPPSASGTPGQRVTISCSGSSSNIGRNTVNWYQQFSGTAPRLLIYRTNQRPSGVPDRFSGSKSGTSASLVISGLQSEDEADYYCASWHDTLNDVVFGGGTKLTVL
B17: ADI-41359 (antibody, V domains shown)
VH: EVQLVESGGGLVKPGGSLRLSCAASGFTISGYSMDWVRQAPGKGLEWVSSISSSSSYIHYADSVKGRFTISRDNAKNSLYLQMNSLRAEDTAVYYCATNPREGGAFDIWGQGTTVTVSS
VL: QSVLTQPPSMSGAPGQRVTISCTGSSSNIGAGYDVHWYQQLPGTAPKLLIYNNSNRPSGVPDRFSASKSGTSASLAITGLQAEDEADYYCQSYDSSLSGYVFGTGTRVTVP
B18: ADI-41396 (antibody, V domains shown)
VH: EVQLVESGGGLVNPGGSLRLSCVVSGFAFSSYGMNWVRQAPGKGLEWVSSISASSSYIDYADSVKGRFIISRDNAKNSLHLQMNSLRAEDTAVYYCARLGYDSSTYYTNWFDPWGRGTLVTVSS
VL: B17 VL with L4V, P7E, M10V, A31T, T44A, N52G, F64I, A66G, R107K, P111L
B19: ADI-41417 (antibody, V domains shown)
VH: QVQLVESGGGLVKPGGSLRLSCAASGFTFSSYSMNWVRQAPGKGLEWVSSISAGSSYIYYADSLKGRFTISRDNAKNSLYLQMNSLRAEDTAVYYCARVNTHYYDSSAYHNFDSWGQGTLVTVSS
VL: QPVVTQPPSVSGAPGQRVTISCTGSSSNIGAGYDVHWYQQLPGTAPKLLIYGNTNRPSGVPERFSGSKSGTSASLAITGLQAEDEADYYCQSYDTNLSAPWVFGGGTKLTVL
B20: ADI-41408 (antibody, V domains shown)
VH: QVQLVESGAEVKKPGESLKISCRDSGYSFSSFWIGWVRQMPGKGLEWVGIIYPGDSDIRYSPSFQGRVTISADKSISTAYLQWRSLKASDSAMYYCARSEKLGSFDRWGQGTLVTVSS
VL: DIQMTQSPSSLSASVGDRVTITCQANRDISNCLNWYQQRPGKAPELLIYDASYLETGVPSRFTGSGSGTDFTFTISSLQPEDIATYYCQQYDNLLFTFGPGTKVEIK
B21: ADI-41382 (antibody, V domains shown)
VH: EVQLVESGGGLVQPGRSLRLSCAASGFTFDDYAMHWVRQAPGKGLEWVSGISWSGDTRGYAESVKGRFTITRDNAKKYLYLQMNSLRAEDTAFYYCAKDAYYFGSGNEKFYYGMDVWGQGTTVTVSS
VL: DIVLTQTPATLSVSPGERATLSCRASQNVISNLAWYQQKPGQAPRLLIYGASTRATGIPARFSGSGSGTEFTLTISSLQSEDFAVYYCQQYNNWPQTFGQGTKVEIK

Each binder was assayed against RSV prefusion F (preF), subtype A (respiratory syncytial virus, subtype A, UniProt P03420 26-513) (assay: BLI, IgG).
Work on B1 yielded a Kd of 0.834 nM.

These binders were tested against T1, RSV postfusion F (postF), subtype A (respiratory syncytial virus, subtype A, UniProt P03420 26-513) (assay: BLI, IgG).
T1 construct: also called F ΔFP; Postfusion subtype A
B1: no binding.

What follows are binders tested against RSV prefusion F (preF), subtype B (respiratory syncytial virus, subtype B) (assay: BLI, IgG).
B1 gave a Kd of 0.777 nM.

The binders below were run against RSV fusion glycoprotein (RSV F) on RSV-A2 virus (respiratory syncytial virus, UniProt P03420 26-574) (assay: cell-based or functional assay).
In the case of B2, the “Neutralization IC50 (RSV subtype A)” value is reported as over 25 µg/mL. With B3 the “Neutralization IC50 (RSV subtype A)” value was 0.389 µg/mL. With B4 the “Neutralization IC50 (RSV subtype A)” value was 0.09 µg/mL. In the case of B5, the “Neutralization IC50 (RSV subtype A)” value is reported as 0.29 µg/mL. B6 was tested, and the “Neutralization IC50 (RSV subtype A)” value was 0.911 µg/mL. In the case of B7, the “Neutralization IC50 (RSV subtype A)” value is reported as 0.149 µg/mL. For B8, the “Neutralization IC50 (RSV subtype A)” value was 0.14 µg/mL. For B9, the “Neutralization IC50 (RSV subtype A)” value was over 25 µg/mL. B10 was tested, and the “Neutralization IC50 (RSV subtype A)” value was over 25 µg/mL. For B11, the “Neutralization IC50 (RSV subtype A)” value was 0.143 µg/mL. B12 was tested, and the “Neutralization IC50 (RSV subtype A)” value was 0.0549 µg/mL. For B13, the “Neutralization IC50 (RSV subtype A)” value was 0.62 µg/mL. B14 was tested, and the “Neutralization IC50 (RSV subtype A)” value was over 25 µg/mL. For B15, the “Neutralization IC50 (RSV subtype A)” value was over 25 µg/mL. For B16, the “Neutralization IC50 (RSV subtype A)” value was over 25 µg/mL. For B17, the “Neutralization IC50 (RSV subtype A)” value was over 25 µg/mL. In the case of B18, the “Neutralization IC50 (RSV subtype A)” value is reported as 1.37 µg/mL. In the case of B19, the “Neutralization IC50 (RSV subtype A)” value is reported as 0.71 µg/mL. With B20 the “Neutralization IC50 (RSV subtype A)” value was over 25 µg/mL. For B21, the “Neutralization IC50 (RSV subtype A)” value was 0.02 µg/mL.
